Measured values as given in patent US20240390460A1 (Regeneron, published 2024).

T1: murine Il2rg (murine, UniProt P34902 23-369)
T1 construct: whole, on cells; also called mouse IL2RG; murine IL2rg receptor
T1 sequence (looked up): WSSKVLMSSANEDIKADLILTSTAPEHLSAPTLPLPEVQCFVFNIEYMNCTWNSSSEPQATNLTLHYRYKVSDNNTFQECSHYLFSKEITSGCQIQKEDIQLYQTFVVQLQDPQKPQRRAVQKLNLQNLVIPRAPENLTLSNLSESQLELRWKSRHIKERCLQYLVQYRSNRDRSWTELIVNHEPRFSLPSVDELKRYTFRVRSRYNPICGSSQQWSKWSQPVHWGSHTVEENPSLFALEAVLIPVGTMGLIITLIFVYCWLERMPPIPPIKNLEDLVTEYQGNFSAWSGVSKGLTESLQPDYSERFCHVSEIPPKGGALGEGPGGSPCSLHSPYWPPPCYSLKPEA

T2: Human IL2RG (interleukin-2 receptor subunit gamma), wild type (human, UniProt P31785 23-369)
T2 construct: also called wild type human IL2RG; WT IL2RG
T2 sequence: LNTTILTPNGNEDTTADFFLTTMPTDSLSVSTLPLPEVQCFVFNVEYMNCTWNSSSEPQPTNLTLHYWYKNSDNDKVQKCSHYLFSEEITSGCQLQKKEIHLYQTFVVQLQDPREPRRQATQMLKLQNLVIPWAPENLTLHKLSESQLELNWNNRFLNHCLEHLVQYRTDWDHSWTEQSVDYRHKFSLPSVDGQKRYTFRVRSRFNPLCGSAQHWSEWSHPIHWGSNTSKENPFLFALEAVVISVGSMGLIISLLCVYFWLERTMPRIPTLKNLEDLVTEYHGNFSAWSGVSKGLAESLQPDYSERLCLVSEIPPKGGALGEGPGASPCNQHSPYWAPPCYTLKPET

T3: recombinant human IL2RG extracellular domain (human, UniProt P31785 23-262)
T3 construct: also called IL2RG ectodomain; ECD
T3 sequence: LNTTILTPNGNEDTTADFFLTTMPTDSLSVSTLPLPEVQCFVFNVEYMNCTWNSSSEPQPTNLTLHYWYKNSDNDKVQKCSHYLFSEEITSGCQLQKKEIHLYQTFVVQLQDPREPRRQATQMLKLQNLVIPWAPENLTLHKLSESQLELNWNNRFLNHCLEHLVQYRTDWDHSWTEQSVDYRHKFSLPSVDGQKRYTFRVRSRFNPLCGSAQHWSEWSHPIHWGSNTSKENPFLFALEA


How the values were obtained:
[1] = biological target: T1, murine Il2rg; experiment: stated in Example 1 for donor T cells of wild-type mice; no binding assay described
[2] = biological target: T2, Human IL2RG (interleukin-2 receptor …); experiment: flow cytometry on iPSC-derived NK cells
[3] = biological target: T3, recombinant human IL2RG extracellular …; experiment: cryoEM of the complex

| binding result [1] | binding result [2] | binding result [3] | Binder |
| --- | --- | --- | --- |
| no binding | binds | – | REGN7257 (antibody, human IgG4 S228P, kappa, V domains shown, also called H4H12889P; anti-IL2RG antibody) VH: EVQLVESGGGLVQPGGSLRLSCAASGFIFSSYEMHWVRQAPGKGLEWISYISSSGTTIYYADSVKGRFTISRDNAKNSLYLHMNSLRAEDTAVYYCTRARITGTFDVFDIWGQGTMVTVSS VL: DIQMTQSPSSLSASVGDRVTITCRASQSISSYLNWYQQKPGKAPKLLIFAASNLQSGVPSRFSGSRSGTDFTLTISSLQPEDFATYYCQQNYNIPYTFGQGTKLEIKR |
| – | – | binds | REGN7257 Fab region (Fab, V domains shown, Fab region of REGN7257 used for cryoEM) VH: EVQLVESGGGLVQPGGSLRLSCAASGFIFSSYEMHWVRQAPGKGLEWISYISSSGTTIYYADSVKGRFTISRDNAKNSLYLHMNSLRAEDTAVYYCTRARITGTFDVFDIWGQGTMVTVSS VL: DIQMTQSPSSLSASVGDRVTITCRASQSISSYLNWYQQKPGKAPKLLIFAASNLQSGVPSRFSGSRSGTDFTLTISSLQPEDFATYYCQQNYNIPYTFGQGTKLEIK |
